# In patent US20070154994A1 (NATIONAL RESEARCH COUNCIL OF CANADA, published 2007):
# Where no end group is shown, it is not given here.
# B1: TβRIIED-E5 dimerized by K5ox (two TβRIIED-E5 to one K5ox) (receptor)
# chain: TIPPEQKLISEEDLLHVQKSVNNDMIVTDNNGAVKFPQLCKFCDVRFSTCDNQKSCMSNCSITSICEKPQEVCVAVWRKNDENITLETVCHDPKLPYHDFILEDAASPKCIMKEKKKPGETFFMCSCSSDECNDNIIFSEEYNTSNPDGGRGGGGSGGGEVSALEKEVSALEKEVSALEKEVSALEKEVSALEKGGHHHHHH
# peptide: CGGKVSALKEKVSALKEKVSALKEKVSALKEKVSALKE
# modifications: N-terminal Cys oxidized, joining the two chains as a K5 covalent dimer
# B2: TβRIIED-K5/TβRIIED-E5 coiled-coil induced dimer (receptor)
# chain 1: TIPPEQKLISEEDLLHVQKSVNNDMIVTDNNGAVKFPQLCKFCDVRFSTCDNQKSCMSNCSITSICEKPQEVCVAVWRKNDENITLETVCHDPKLPYHDFILEDAASPKCIMKEKKKPGETFFMCSCSSDECNDNIIFSEEYNTSNPDGGRGGGGSGGGKVSALKEKVSALKEKVSALKEKVSALKEKVSALKEGGHHHHHH
# chain 2: B1 chain
# notes: Non-covalent dimer made by preincubating equimolar TβRIIED-K5 and TβRIIED-E5; also called TβRIIED-E5/TβRIIED-K5 dimer
# B3: K5ox (peptide)
# peptide: B1 peptide
# modifications: also: covalent homodimer via oxidized N-terminal Cys
# notes: Synthetic peptide oxidized in ammonium bicarbonate at pH 8.0; also called oxidized CGGK5 coil; K5 covalent dimer
# B4: TβRIIED-E5 fusion protein (receptor)
# chain: B1 chain
# notes: Secreted from HEK 293SF cells; also called TβRII ED-E5 coil; E5 coiled-tagged TβRIIED
# B5: TβRIIED-K5 fusion protein (receptor)
# chain: B2 chain 1
# notes: Secreted from HEK 293SF cells; The monomer was separated from aggregates with a Centriprep 30; also called K5 coiled-tagged TβRIIED; monomeric TβRIIED-K5
# B6: MP-TβRIIIED-K5 fusion protein (receptor)
# chain: GPEQKLISEEDLRQLRNPSGFQGQLDGNATFNMELYNTDLFLVPSPGVFSVAENEHVYVEVSVTKADQDLGFAIQTCFLSPYSNPDRMSDYTIIENICPKDDSVKFYSSKRVHFPIPHAEVDKKRFSFLFKSVFNTSLLFLHCELTLCSRKKGSLKLPRCVTPDDACTSLDATMIWTMMQNKKTFTKPLAVVLQVDYKENVPSTKDSSPIPPPPPQIFHGGRGGGGSGGGKVSALKEKVSALKEKVSALKEKVSALKEKVSALKEGGHHHHHH
# notes: Secreted from HEK 293SF cells; also called Cterm-TβRIIIED-K5coil; K5 tagged TβRIIIED
# Legend:
# Recombinant human TGF-β1 [1] = target: T1, Recombinant human TGF-β1 (human, UniProt P01137 279-390); experiment: cell-based or functional assay
# Recombinant human TGF-β1 [2] = target: T1, Recombinant human TGF-β1; experiment: SPR, TGF-β1 coupled, rearrangement model, rearrangement step
# Method: (§1) Since TGF-β1 is a covalent dimer, and since TβRIIED was artificially dimerized through coiled-coil interactions, two scenarios of binding were evaluated. […] This corresponds to an overall one to one (dimer-to-dimer) stoichiometry model with a rearrangement step after the initial binding (rearrangement model).
# Recombinant human TGF-β1 [3] = target: T1, Recombinant human TGF-β1; experiment: SPR, TGF-β1 coupled, simple one-to-one model (poor fit), kass#1
# Recombinant human TGF-β1 [4] = target: T1, Recombinant human TGF-β1; experiment: SPR, TGF-β1 coupled, avidity model, kass#1
# Method: as §1
# Recombinant human TGF-β1 [5] = target: T1, Recombinant human TGF-β1; experiment: SPR, TGF-β1 coupled, avidity model, Kd 1
# Method: (§2) Regeneration of the sensor chip for subsequent injections was accomplished by two pulses of HCl (20 mM, 120 seconds), followed by an EXTRACLEAN procedure performed according to the BIACORE manual.
# Recombinant human TGF-β1 [6] = target: T1, Recombinant human TGF-β1; experiment: SPR, TGF-β1 coupled, avidity model, second step; unit from footnote **
# Method: as §2
# Recombinant human TGF-β1 [7] = target: T1, Recombinant human TGF-β1; experiment: SPR, TGF-β1 coupled, simple one-to-one model (poor fit), Kd 1
# Method: as §2
# Recombinant human TGF-β1 [8] = target: T1, Recombinant human TGF-β1; experiment: SPR, TGF-β1 coupled, rearrangement model (best fit), Kdiss#1
# Recombinant human TGF-β1 [9] = target: T1, Recombinant human TGF-β1; experiment: SPR, TGF-β1 coupled, rearrangement model, Kd 1 (initial binding step)
# Method: as §1
# Recombinant human TGF-β1 [10] = target: T1, Recombinant human TGF-β1; experiment: SPR, TGF-β1 coupled, simple one-to-one model (poor fit), Kdiss#1
# Recombinant human TGF-β1 [11] = target: T1, Recombinant human TGF-β1; experiment: SPR, TGF-β1 coupled, rearrangement model (best fit), Kdapp
# Recombinant human TGF-β1 [12] = target: T1, Recombinant human TGF-β1; experiment: SPR, TGF-β1 coupled, avidity model, Kdiss#1
# Method: as §1
# Recombinant human TGF-β1 [13] = target: T1, Recombinant human TGF-β1; experiment: SPR, TGF-β1 coupled, rearrangement model (best fit), kass#1
# Method: as §1
# Recombinant human TGF-β1 [14] = target: T1, Recombinant human TGF-β1; experiment: SPR, TGF-β1 coupled, simple one-to-one model (poor fit), Kdapp
# Method: as §2
# [15] = target: B4; experiment: inferred from SPR of TβRIIED-E5 (300 nM) preincubated with K5ox over coupled TGF-β1
# From the text: (§3) In another embodiment of the invention, an alternative approach to achieving coiled-coil induced dimerization of TβRIIED is provided. In this embodiment, a dimeric coil is used to act as an adaptor to bridge two proteins.
# (§4) Regeneration of the sensor chip was done as described above.
# Recombinant human TGF-β1 [16] = target: T1, Recombinant human TGF-β1; experiment: SPR (BIACORE), TGF-β1 coupled, 300 nM TβRIIED-E5 alone; the pair is assigned by the fast wash-off that paragraph 133 gives for sensorgrams 1 and 4
# From the text: as §3, §4
# Recombinant human TGF-β1 [17] = target: T1, Recombinant human TGF-β1; experiment: SPR, TGF-β1 coupled, two-to-one stoichiometry model, Kd 2 (second site)
# Method: (§5) As described in Example 3, TGF-β1 was coupled to the biosensor surface (approximately 250 RUs) by a standard amino coupling procedure. […] After data preparation by the ‘double referencing’ method, the set of sensorgrams was globally fit using a kinetic model depicting the presence of two independent TβRIIED binding sites on the TGF-β1 molecule (two-to-one stoichiometry model).
# as §2
# Recombinant human TGF-β1 [18] = target: T1, Recombinant human TGF-β1; experiment: SPR, TGF-β1 coupled, two-to-one stoichiometry model, Kd 1 (first site)
# Method: as §5, §2
# Recombinant human TGF-β1 [19] = target: T1, Recombinant human TGF-β1; experiment: SPR, TGF-β1 coupled, two-to-one stoichiometry model, kdiss 2 (second site)
# Method: as §5, §2
# [20] = target: B4; experiment: SPR (BIACORE), TβRIIED-E5 captured on the coupled anti hTGF-βRII antibody, TβRIIED-K5 injected at 50 nM
# Method: (§6) A solution of 0.1 M ethanolamine-HCl (pH 8.5, 35 μL) was then used to block the remaining activated carboxyl groups.
# (§7) Three studies were then performed at a flow rate of 5 μL/min: [0183] […] [0184] […] [0185]
# Recombinant human TGF-β1 [21] = target: T1, Recombinant human TGF-β1; experiment: SPR, TGF-β1 coupled, two-to-one stoichiometry model, kass 2 (second site)
# Method: as §5, §2
# Recombinant human TGF-β1 [22] = target: T1, Recombinant human TGF-β1; experiment: SPR, TGF-β1 coupled, two-to-one stoichiometry model, kdiss 1 (first site)
# Method: as §5, §2
# Recombinant human TGF-β1 [23] = target: T1, Recombinant human TGF-β1; experiment: SPR, TGF-β1 coupled, two-to-one stoichiometry model, kass 1 (first site)
# Method: as §5, §2
# Recombinant human TGF-β1 [24] = target: T1, Recombinant human TGF-β1; experiment: SPR, TGF-β1 coupled, rearrangement model, rearrangement step; remark: listed apart in the source
# Method: (§8) In FIG. 6A, different concentrations of MP-TβRIIIED-K5 monomeric fusion protein ranging from 62.5 nM to 500 nM were injected over 75 RUs of coupled TGF-β1 and over a control surface. The points are the resonance units obtained after data preparation as described in Example 2, and the solid lines represent the fit when integrating all the curves simultaneously using a rearrangement model. FIGS. 6B-6C show residuals from the fit of the interaction data using a rearrangement model (FIG. 6B) and a simple one-to-one model (FIG. 6C).
# (§9) Surface plasmon resonance studies were performed using a BIACORE™ biosensor (see for example U.S. Pat. No. 6,165,335 and related patents) using a running buffer composed of HBS; 20 mM Hepes (pH 7.4),150 mM NaCl, 3.4 mM EDTA, and 0.05% Tween20 for diluting all the test analytes.
# Recombinant human TGF-β1 [25] = target: T1, Recombinant human TGF-β1; experiment: SPR, TGF-β1 coupled, rearrangement model, Kd 1 (initial binding step); remark: listed apart in the source
# Method: as §8, §9
# Recombinant human TGF-β1 [26] = target: T1, Recombinant human TGF-β1; experiment: SPR, TGF-β1 coupled, rearrangement model, Kdapp
# Method: as §8
# (§10) Kinetic experiments were carried out at 25° C. with a flow rate of 100 μL/min. Different concentrations of MP-TβRIIIED-K5 (0 to 500 nM), or MP-TβRIIIED-mixed with equimolar concentrations of […] (0 to 150 nM), were randomly injected in duplicate over a TGF-β1 surface as well as over a control surface (150 μL injections), following which the analyte solution was replaced by buffer for at least 210 seconds. Regeneration of the sensor chip for subsequent injections was accomplished by two pulses of HCl (20 mM, 120 seconds), followed by an EXTRACLEAN procedure performed according to the BIACORE manual.
# Recombinant human TGF-β1 [27] = target: T1, Recombinant human TGF-β1; experiment: SPR, TGF-β1 coupled, simple model, Kdiss#1
# Method: as §8, §9
# Recombinant human TGF-β1 [28] = target: T1, Recombinant human TGF-β1; experiment: SPR, TGF-β1 coupled, rearrangement model, kass#1
# Method: as §8, §9
# Recombinant human TGF-β1 [29] = target: T1, Recombinant human TGF-β1; experiment: SPR, TGF-β1 coupled, simple model, kass#1
# Method: as §8, §10
# Recombinant human TGF-β1 [30] = target: T1, Recombinant human TGF-β1; experiment: SPR, TGF-β1 coupled, simple model, Kdapp
# Method: as §8, §9
# Recombinant human TGF-β1 [31] = target: T1, Recombinant human TGF-β1; experiment: SPR, TGF-β1 coupled, rearrangement model, Kdiss#1
# Method: as §8, §10
# Recombinant human TGF-β1 [32] = target: T1, Recombinant human TGF-β1; experiment: SPR, TGF-β1 coupled, simple model, Kd 1; simple model, Kd 1
# Method: as §8, §9
# [33] = target: T2, Recombinant human TβRIIED, untagged (human, UniProt P37173 23-166); experiment: SPR (BIACORE), untagged hTβRII ED (about 120 RU left) captured on the coupled anti hTGF-βRII antibody, MP-TβRIIIED-K5 injected
# T2 construct: extracellular domain; Gift from Dr. Hinck; also called untagged hTβRII ED; untagged TβRIIED
# Method: This study is also described in Example 2.
# as §6, §7
# T1 sequence (P01137 279-390 limits assumed): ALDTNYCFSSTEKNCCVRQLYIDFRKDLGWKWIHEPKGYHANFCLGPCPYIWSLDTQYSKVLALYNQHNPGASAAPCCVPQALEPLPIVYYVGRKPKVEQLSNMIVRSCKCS
# T2 sequence (P37173 23-166): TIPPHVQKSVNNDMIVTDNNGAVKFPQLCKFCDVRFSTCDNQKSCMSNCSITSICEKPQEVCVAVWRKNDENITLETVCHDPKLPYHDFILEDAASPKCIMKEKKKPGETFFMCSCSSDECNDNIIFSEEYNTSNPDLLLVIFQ
binder,measurement,setting,value
B1,"IC50 for inhibition of signaling (luciferase, MLEC cells)",Recombinant human TGF-β1 [1],~30 nM
same,"IC50 of TβRIIED-E5 in the presence of 150 nM K5ox (luciferase, MLEC cells)",Recombinant human TGF-β1 [1],53 nM
B2,Kd 2 (no unit),Recombinant human TGF-β1 [2],0.0166 no unit
same,kon,Recombinant human TGF-β1 [3],640000 M⁻¹ s⁻¹
same,kon,Recombinant human TGF-β1 [4],213000 M⁻¹ s⁻¹
same,Kd,Recombinant human TGF-β1 [5],330 nM
same,Kd 2,Recombinant human TGF-β1 [6],370 nM
same,Kd,Recombinant human TGF-β1 [7],0.33 nM
same,koff,Recombinant human TGF-β1 [8],0.11 s⁻¹
same,Kd,Recombinant human TGF-β1 [9],92 nM
same,koff,Recombinant human TGF-β1 [10],0.00021 s⁻¹
same,Kd,Recombinant human TGF-β1 [11],1.5 nM
same,koff,Recombinant human TGF-β1 [12],0.071 s⁻¹
same,kon,Recombinant human TGF-β1 [13],1.19e+06 M⁻¹ s⁻¹
same,Kd,Recombinant human TGF-β1 [14],0.33 nM
B3,binding result,[15],binds
B4,binding result,Recombinant human TGF-β1 [16],binds
B5,Kd,Recombinant human TGF-β1 [17],1250 nM
same,Kd,Recombinant human TGF-β1 [18],90 nM
same,koff,Recombinant human TGF-β1 [19],0.0026 s⁻¹
same,binding result,[20],binds
same,kon,Recombinant human TGF-β1 [21],1900 M⁻¹ s⁻¹
same,koff,Recombinant human TGF-β1 [22],0.033 s⁻¹
same,kon,Recombinant human TGF-β1 [23],365000 M⁻¹ s⁻¹
B6,kd 2 (no unit),Recombinant human TGF-β1 [24],0.15 no unit
same,Kd,Recombinant human TGF-β1 [25],670 nM
same,Kd,Recombinant human TGF-β1 [26],86 nM
same,koff,Recombinant human TGF-β1 [27],0.0025 s⁻¹
same,kon,Recombinant human TGF-β1 [28],64000 M⁻¹ s⁻¹
same,kon,Recombinant human TGF-β1 [29],50000 M⁻¹ s⁻¹
same,Kd,Recombinant human TGF-β1 [30],48 nM
same,koff,Recombinant human TGF-β1 [31],0.044 s⁻¹
same,Kd,Recombinant human TGF-β1 [32],49 nM
same,binding result,[33],no binding (tested: 200 nM)
